Patent US20030022263A1 (ST JUDE CHILDREN S RESEARCH HOSPITAL, published 2003)

Target: T1, endogenous eIF-4E of mouse fibroblasts (mouse, UniProt P63073 2-217)
T1 construct: mature
Assay: eIF-4E captured on a methyl-G column from mouse fibroblast lysates, Western blot for both proteins
Method: Fibroblasts from normal or AT mice were treated with (+) or without (−) insulin and total cellular and complexed eIF-4E and 4E-BP1 were examined by Western blot. […] The amount of 4E-BP1 bound to eIF-4E was examined by immunoprecipitating eIF-4E with a methyl-G column and then blotting for both proteins.

T1 sequence (P63073 2-217): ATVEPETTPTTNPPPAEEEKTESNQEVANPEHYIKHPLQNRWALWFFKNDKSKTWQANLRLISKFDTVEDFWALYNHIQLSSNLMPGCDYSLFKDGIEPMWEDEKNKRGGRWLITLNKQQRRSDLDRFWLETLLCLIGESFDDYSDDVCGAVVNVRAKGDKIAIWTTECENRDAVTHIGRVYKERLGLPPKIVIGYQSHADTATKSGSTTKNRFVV

binding result: binds
B1: endogenous 4E-BP1 of mouse fibroblasts (other, UniProt Q60876 2-117, looked up)
chain: SAGSSCSQTPSRAIPTRRVALGDGVQLPPGDYSTTPGGTLFSTTPGGTRIIYDRKFLMECRNSPVAKTPPKDLPAIPGVTSPTSDEPPMQASQSQLPSSPEDKRAGGEESQFEMDI
notes: mature
